Test [1] addresses 4-1BB-AP binding sites (putative cell-surface 4-1BB ligand) on mature B cells and macrophages. The test can be described thus: competition on A20 cells: 20 µg/ml rs4-1BB (50 fold excess) before 4-1BB-AP at 375 ng/ml as competitor; AP activity.
Test [2] addresses T1, mutated p56lck, construct C2 (cys 23-ser) (murine, UniProt P06240 2-509).
T1 construct: Expressed in HeLa cells with the vaccinia T7 system; also called mutant p56^lck C2
In words: coimmunoprecipitation with 53A2, in vitro kinase labeling, HeLa cells. The text has this: (§1) High levels of coexpression have been achieved previously with this system to facilitate interactions between CD4 and p56^lck. To ensure consistent expression of 4-1BB, the transfected HeLa cells were briefly labeled with [^35S] cysteine before harvest. 4-1BB expression was monitored by immunoprecipitation of ^35S-labeled 4-1BB with 53A2.
(§2) FIGS. 32a–c show an analysis of the association of 4-1BB and p56^lck HeLa cells. […] Lysates were immunoprecipitated with antibodies to p56^lck and 4-1BB and labeled with [γ-^32P] ATP by the in vitro kinase reaction. The positions of p56^lck and 4-1BB are indicated to the right. Total HeLa celll lysates were immunoblotted with antibody top56^lck assay thep56^lck expression. FIGS. 32b and 32c show an immune complex kinase assay. Aliquots of the saline lysates were immunoprecipitated with antip56^lck serum (FIG. 32b) or 53A2 (FIG. 32c) followed by the in vitro kinase reaction with [γ-^32P] ATP as described in the legend to FIG. 30. […] HeLa celis were grown to 80% confluency on 100-mm petri dishes in DMEM containing 10% FBS and antibiotics. Cells were infected with 1×10^8 pfu of vaccinia virus expressing T7 RNA polymerase (136) 30 min before transfection. DNA was transfected in liposomes (Lipofectin, GIBCO, BRL). 15 μg DNA and 50 μl liposome diluted into 5 ml serum-free DMEM were incubated in 12×75 mm polystyrene tubes at room temperature for 15 min. […]

Test [3] deals with T2, mutated p56lck, construct C1 (cys 20-ser) (murine, UniProt P06240 2-509).
T2 construct: Expressed in HeLa cells with the vaccinia T7 system; also called mutant p56^lck C1
T2 sequence (P06240 other isoform, or with tags, fused parts or gaps limits assumed, change not shown): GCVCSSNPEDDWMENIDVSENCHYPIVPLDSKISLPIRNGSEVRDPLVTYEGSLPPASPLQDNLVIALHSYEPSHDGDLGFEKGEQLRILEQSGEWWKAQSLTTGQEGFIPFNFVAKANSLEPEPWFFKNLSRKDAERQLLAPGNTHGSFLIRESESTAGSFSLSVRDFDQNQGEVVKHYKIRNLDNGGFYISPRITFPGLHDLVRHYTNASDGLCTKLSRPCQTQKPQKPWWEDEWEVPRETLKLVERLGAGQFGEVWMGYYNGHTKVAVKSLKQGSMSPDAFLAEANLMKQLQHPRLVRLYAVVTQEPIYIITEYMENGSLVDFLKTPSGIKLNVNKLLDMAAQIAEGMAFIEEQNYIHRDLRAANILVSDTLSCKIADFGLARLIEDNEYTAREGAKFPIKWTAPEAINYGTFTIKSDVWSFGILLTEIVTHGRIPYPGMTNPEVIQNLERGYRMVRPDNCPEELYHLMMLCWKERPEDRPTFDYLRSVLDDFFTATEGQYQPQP
The description is as above.
Excerpt: as §1, §2

The next test has as its target T3, human vitronectin (human, UniProt P04004 20-478).
T3 construct: Bought protein
In words: ELISA, human vitronectin immobilized on microtiter plates, AP activity (data not shown). As for the experimental part:
Chalupny and colleagues (132) have proposed that 4-1BB Rg, a fusion protein consisting of the extracellular domain of 4-1BB and the Fc region of human IgG, bound to the extracellular matrix (ECM). The highest levels of 4-1BB Rg binding was to human vitronectin. In data not shown, an ELISA was performed using 4-1BB-AP and human vitronectin (Yelios Pharmaceuticals/GIBCO-BRL, Grand Island, N.Y.) immobilized at 0.007 μg–10 μg per well on microtiter plates. No binding of 4-1BB-AP based on AP activity was observed. To rule out the possibility that 4-1BB-AP was binding to proteins extrinsically attached to the cell surface (possible extracellular matrix components), B-cell lymphomas were washed in acid conditions prior to the binding assay (115). 4-1BB-AP still bound specifically to mature B-cell lymphomas (data not shown). We are currently determining whether a 4-1BB-ligand specifically expressed on B cells and macrophages exists, and whether 4-1BB-AP may bind to the ECM under particular binding conditions. It is possible that the ECM could facilitate the binding of 4-1BB to a specific cell-surface ligand.
(An ELISA detects its analyte on a solid surface through an enzyme-linked reagent.)

T1 sequence (P06240 other isoform, or with tags, fused parts or gaps limits assumed, change not shown): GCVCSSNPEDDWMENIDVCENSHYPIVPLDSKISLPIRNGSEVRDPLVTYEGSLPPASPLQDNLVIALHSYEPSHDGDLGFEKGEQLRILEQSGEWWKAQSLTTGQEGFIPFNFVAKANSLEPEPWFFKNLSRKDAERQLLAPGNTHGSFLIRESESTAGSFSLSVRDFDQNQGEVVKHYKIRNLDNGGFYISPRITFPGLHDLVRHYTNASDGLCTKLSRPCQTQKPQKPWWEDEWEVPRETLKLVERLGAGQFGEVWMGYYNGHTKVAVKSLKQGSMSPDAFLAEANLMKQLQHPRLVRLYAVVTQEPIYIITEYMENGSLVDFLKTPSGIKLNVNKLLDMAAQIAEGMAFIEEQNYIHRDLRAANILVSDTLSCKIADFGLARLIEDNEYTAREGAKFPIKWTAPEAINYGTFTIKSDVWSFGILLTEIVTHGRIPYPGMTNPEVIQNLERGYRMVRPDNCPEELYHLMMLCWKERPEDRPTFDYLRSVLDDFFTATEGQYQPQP
T3 sequence (P04004 20-478 limits assumed): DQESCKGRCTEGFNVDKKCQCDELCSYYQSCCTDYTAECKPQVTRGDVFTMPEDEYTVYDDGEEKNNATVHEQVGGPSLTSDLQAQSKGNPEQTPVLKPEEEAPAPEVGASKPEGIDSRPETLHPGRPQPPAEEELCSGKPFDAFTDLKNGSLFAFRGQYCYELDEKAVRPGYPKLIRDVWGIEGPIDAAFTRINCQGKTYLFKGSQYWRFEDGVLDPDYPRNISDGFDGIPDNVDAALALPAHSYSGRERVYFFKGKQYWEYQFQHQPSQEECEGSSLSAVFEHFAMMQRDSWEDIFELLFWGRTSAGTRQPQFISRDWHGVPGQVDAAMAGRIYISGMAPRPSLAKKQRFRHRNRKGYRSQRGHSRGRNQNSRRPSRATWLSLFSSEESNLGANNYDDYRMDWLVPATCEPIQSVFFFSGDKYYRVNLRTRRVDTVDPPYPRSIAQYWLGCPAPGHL

Consider “recombinant soluble 4-1BB protein (extracellular domain of mouse 4-1BB) (from UniProt P20334 24-187) (receptor)”, for which, in test [1], the percent of 4-1BB-AP binding blocked came to 70%.

B1: mouse receptor protein 4-1BB (full length) (receptor)
chain: VQNSCDNCQPGTFCRKYNPVCKSCPPSTFSSIGGQPNCNICRVCAGYFRFKKFCSSTHNAECECIEGFHCLGPQCTRCEKDCRPGQELTKQGCKTCSLGTFNDQNGTGVCRPWTNCSLDGRSVLKTGTTEKDVVCGPPVVSFSPSTTISVTPEGGPGGHSLQVLTLFLALTSALLLALIFITLLFSVLKWIRKKFPHIFKQPFKKTTGAAQEEDACSCRCPQEEEGGGGGYEL
notes: Native on T cells (CTLL-R8, CTLL-2, F1, splenic T cells, thymocytes) or recombinant full length in Sf-21 and HeLa cells; also tested in lysates and blots; Seen as 30 kDa monomer, 55 kDa dimer and possibly 110 kDa tetramer; homodimer not proven; also called 4-1BBP; 4-1BBL (full length cDNA construct)
For B1, the binding result in test [2] and in test [3] was “no binding” throughout.

B2: 4-1BB-AP fusion protein (extracellular domain of 4-1BB fused to human placental alkaline phosphatase) (other)
chain: VQNSCDNCQPGTFCRKYNPVCKSCPPSTFSSIGGQPNCNICRVCAGYFRFKKFCSSTHNAECECIEGFHCLGPQCTRCEKDCRPGQELTKQGCKTCSLGTFNDQNGTGVCRPWTNCSLDGRSVLKTGTTEKDVVCGPPVVSFSPSTTISVTPEGGPGGHSLQVL
notes: Signal peptide and entire extracellular domain of 4-1BB up to the first hydrophobic residue of the transmembrane region, joined in frame upstream of AP; secreted by NIH-3T3 transfectants; also called 4-1BB-Alkaline Phosphatase; 85 kDa fusion protein; not shown: human placental alkaline phosphatase as coded in the APtag-1 vector
Regarding B2, the binding result with human vitronectin is recorded as “no binding (tested: 0.007 µg-10 µg per well)”.

(Values after patent US6974863 (INDIANA UNIVERSITY RESEARCH AND TECHNOLOGY, dated 2005).)
